Assay results reported in PMC3891018 (Scientific Reports, 2014).

B1: nIgG peptide DTLMISRTPEVTCVV 278-292 (peptide 1) (peptide)
peptide: DTLMISRTPEVTCVV
B2: nIgG peptide LTCLVKGFYPSDI 394-406 (peptide 6) (peptide)
peptide: LTCLVKGFYPSDI

Biological target: H-ficolin (human, UniProt O75636 24-299)
Assay: SPR

Chain of H-ficolin (O75636 24-299): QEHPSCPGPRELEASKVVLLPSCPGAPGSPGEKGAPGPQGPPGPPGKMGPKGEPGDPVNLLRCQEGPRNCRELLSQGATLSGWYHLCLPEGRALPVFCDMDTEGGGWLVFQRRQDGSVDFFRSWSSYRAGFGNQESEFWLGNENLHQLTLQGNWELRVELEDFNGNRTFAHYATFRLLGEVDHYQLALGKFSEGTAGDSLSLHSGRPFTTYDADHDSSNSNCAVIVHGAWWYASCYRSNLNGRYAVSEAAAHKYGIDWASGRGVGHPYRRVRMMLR

Row | Binder | Kd
1 | B1 | ~1000 nM
2 | B2 | ~1000 nM
